From article PMC7984218 come the findings set out here.

Data set [1] deals with T1, Dna2405N (UniProt P38859).
T1 sequence: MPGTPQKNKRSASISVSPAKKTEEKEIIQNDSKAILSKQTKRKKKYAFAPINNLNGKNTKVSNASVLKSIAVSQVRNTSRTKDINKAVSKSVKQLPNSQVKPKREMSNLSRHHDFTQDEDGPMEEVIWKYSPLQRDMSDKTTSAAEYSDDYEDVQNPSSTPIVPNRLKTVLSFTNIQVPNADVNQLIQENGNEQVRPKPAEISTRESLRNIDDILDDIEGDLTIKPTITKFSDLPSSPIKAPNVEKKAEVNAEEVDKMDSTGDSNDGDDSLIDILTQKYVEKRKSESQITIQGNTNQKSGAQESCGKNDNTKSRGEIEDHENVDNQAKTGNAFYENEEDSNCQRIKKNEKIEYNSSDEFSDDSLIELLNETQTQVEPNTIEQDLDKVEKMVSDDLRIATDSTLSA
Kind of data set: competition.

The target in data set [2] is T2, GST-Dna2405N-5A-His6 (UniProt P38859 1-405, K41A;R42A;K43A;K44A;K45A).
T2 sequence: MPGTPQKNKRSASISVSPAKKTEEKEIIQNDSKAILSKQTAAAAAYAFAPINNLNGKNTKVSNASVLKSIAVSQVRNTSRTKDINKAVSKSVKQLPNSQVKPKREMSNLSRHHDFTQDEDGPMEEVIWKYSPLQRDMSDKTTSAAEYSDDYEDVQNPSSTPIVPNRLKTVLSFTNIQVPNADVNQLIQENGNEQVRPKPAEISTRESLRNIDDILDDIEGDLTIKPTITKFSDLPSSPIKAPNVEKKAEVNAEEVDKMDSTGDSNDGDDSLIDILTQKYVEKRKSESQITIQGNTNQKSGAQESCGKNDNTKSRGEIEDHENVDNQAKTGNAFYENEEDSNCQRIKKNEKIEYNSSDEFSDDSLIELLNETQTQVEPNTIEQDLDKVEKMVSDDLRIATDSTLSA
Kind of data set: EMSA. In general terms: In EMSA bound probe runs differently from free probe, usually more slowly.

A value given as a limit tells only on which side of the number the result lay.

Take M13mp18 viral DNA (sscDNA): the binding signal (% inhibition of Hairpin binding) in data set [1] was greater than 80.

B1: Hairpin (standard 5' hairpin flap; oligos 1, 2, 5) (structured_DNA)
DNA 1: GAAAACATTATTAATGGCGTCGAGCTAGGCACAAGGCGAACTGCTAACGG
DNA 2: CCGTTAGCAGTTCGCCTTGTGCCTA
DNA 3: GCGCATGTGCGTTCCGTCCGGTTCAAGCCGCAGCGGCTTGAACCGGACGCTCGACGCCATTAATAATGTTTTC
Turning to B1, the binding result in data set [2] is reported as “no binding”.
